Like-named read-outs stand apart in the source and are kept apart here.
Legend:
[1] = biological target: T1, PACAP27 (Pituitary Adenylate Cyclase-Activating Polypeptide, 27 amino acids) (human, the C-terminal leucine is amidated); assay: competition HTRF binding assay: unlabeled PACAP27 at 10x against biotinylated PACAP38 (35 nM)
T1 construct: also called human PACAP27
T1 peptide: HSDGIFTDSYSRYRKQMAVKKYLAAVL
Description: In parallel, 10 μl of an antibody dilution series (highest final concentration of 100 nM) were incubated with 10 μl of N-terminal or C-terminal biotinylated PACAP38 (35 nM final) alone, or in combination with either PACAP27 (350 nM final) or VIP (350 nM final), i.e., 10× PACAP27 or 10× VIP, respectively, in a HTRF plate. 20 μl of Eu³⁺ cryptate labeled anti-hu Fc donor and 20 μl of d2-labeled streptavidin acceptor were added to each well and incubated for 1 hour at room temperature. Fluorescence was measured at 620 and 665 nm with a delay of 300 usec.

[2] = biological target: T2, PAC1-R on PAC1-R-expressing PC-12 cells (UniProt P32215 20-523); assay: cell surface binding assay (DELFIA TRF): antibody pre-incubated with PACAP38, added to PAC1-R-expressing PC-12 cells, detected with Eu anti-human IgG
T2 construct: whole, on cells; also called PAC1 receptor
T2 sequence (looked up): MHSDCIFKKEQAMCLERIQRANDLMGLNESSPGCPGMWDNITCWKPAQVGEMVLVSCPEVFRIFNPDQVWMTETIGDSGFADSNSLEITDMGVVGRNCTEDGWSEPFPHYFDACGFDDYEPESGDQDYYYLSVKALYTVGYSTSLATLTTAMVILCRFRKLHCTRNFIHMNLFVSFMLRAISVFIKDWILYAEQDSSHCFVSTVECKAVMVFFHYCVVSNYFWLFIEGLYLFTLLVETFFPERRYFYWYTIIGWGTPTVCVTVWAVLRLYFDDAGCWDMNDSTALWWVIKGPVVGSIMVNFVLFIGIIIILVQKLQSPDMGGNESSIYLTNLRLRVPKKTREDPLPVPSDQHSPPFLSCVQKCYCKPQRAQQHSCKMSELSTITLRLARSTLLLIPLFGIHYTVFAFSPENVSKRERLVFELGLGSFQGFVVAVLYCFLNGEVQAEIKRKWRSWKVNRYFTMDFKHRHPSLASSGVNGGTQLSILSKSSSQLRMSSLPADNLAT
Description: Cells were initially seeded at 1×10⁵ cells/well in a solution of complete RPMI (“cRPMI”: RPMI medium supplemented with 10% sterile heat-inactivated FBS and 1% sterile antibiotic/antimycotic)+10% FBS, and the plates were allowed to incubate overnight at 37° C. On the day of the binding assay, antibodies at an initial concentration of 15 μg/ml were diluted at a 1:3 ratio in DELFIA® binding buffer (50 mM Tris, 150 mM NaCl, 0.1% azide, 2% horse serum) (Perkin-Elmer, Waltham, MA) to a total volume of 60 μL in a separate 96 well round bottom plate. PACAP38 was prepared for the binding assay by diluting it in DELFIA® binding buffer to a concentration of 200 nM, and then 60 μl of the diluted PACAP38 was added to each of the antibody-containing wells to form antibody: antigen complexes. Following addition of PACAP38, the antibody: antigen complexes were incubated at room temperature on a shaker for 1 hour. Separately, the PC-12 cells were prepared for addition of antibody: antigen complexes by washing the cells two times with DELFIA® wash buffer (50 mM Tris, 150 mM NaCl, 0.1% Azide) (Perkin-Elmer, Waltham, MA). After washing the cells two times and following the 1 hour room temperature incubation of the antibody: antigen complexes, 50 μl of the antibody: antigen complex was added to each well containing cells. The mixtures of cells and antibody: antigen complexes were then incubated for 30 minutes at room temperature. Following this 30 minute incubation, each mixture was washed two times with DELFIA® wash buffer (Perkin-Elmer, Waltham, MA).
DELFIA® Europium labeled anti-human IgG detection reagent (Cat #1244-330, Perkin-Elmer, Waltham, MA) was diluted to a concentration of 300 ng/ml in DELFIA® Binding Buffer. Following dilution, 50 μl of the anti-human IgG detection reagent was added to each well containing cells, and a 30 minute incubation at room temperature followed this addition of IgG detection reagent. After completion of the 30 minute room temperature incubation, the cells were then washed two times with DELFIA® wash buffer. Next, 50 μl of DELFIA® Enhancement Solution (Cat #1244-105, Perkin-Elmer, Waltham, MA) was added to each well containing cells for a final 15 minute room temperature incubation with shaking. The plates were then read (TRF, excitation 330 nm, emission 620 nm) on a SPECTRAMAX® (Molecular Devices, Sunnyvale, CA) plate reader.

[3] = biological target: T3, PACAP38 (Pituitary Adenylate Cyclase-Activating Polypeptide, 38 amino acids) (human, not fully specified; the C-terminal lysine is amidated); assay: cell-based or functional assay
T3 peptide: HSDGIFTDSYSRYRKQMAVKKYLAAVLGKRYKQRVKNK

[4] = biological target: T1, PACAP27 (Pituitary Adenylate …); assay: cell-based or functional assay
[5] = biological target: T3, PACAP38 (Pituitary Adenylate …); assay: cell-based or functional assay
[6] = biological target: T3, PACAP38 (Pituitary Adenylate …); assay: cell-based or functional assay
[7] = biological target: T3, PACAP38 (Pituitary Adenylate …); assay: SPR (ProteOn XPR36), antibody amine-coupled, peptide analyte, 1:1 Langmuir fit
Description: (§1) Binding affinities of monoclonal antibodies for human PACAP were estimated using SPR on the PROTEON™ XPR36 (Bio-Rad, Hercules, CA). Antibody was immobilized to the surface of general amine coupling (“GLC″ or “GLM”) Chips (Bio-Rad, Hercules, CA). […] Antigen (ranging from 1.23 nM to 100 nM) was typically run sequentially with association times of 2-4 minutes and dissociation times of 3-120 minutes grouped with the PROTEON™ Manager Software (v3.1.0.6 (Bio-Rad, Hercules, CA)) and fitted using a 1:1 Langmuir binding model. Surfaces were regenerated between analyte queries using 0.85% Phosphoric Acid, 0.5% SDS, and 0.1N NaOH.

[8] = biological target: T1, PACAP27 (Pituitary Adenylate …); assay: as above
Description: as §1

[9] = biological target: T4, VIP (Vasoactive Intestinal Peptide) (human); assay: as above
T4 construct: also called human VIP
T4 peptide: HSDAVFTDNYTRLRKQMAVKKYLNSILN

[10] = biological target: T3, PACAP38 (Pituitary Adenylate …); assay: cell surface binding assay (DELFIA TRF): antibody pre-incubated with PACAP38, added to PAC1-R-expressing PC-12 cells, detected with Eu anti-human IgG; the antibody is held on the cells through cell-bound PACAP38
Description: Cells were initially seeded at 1×10⁵ cells/well in a solution of complete RPMI (“cRPMI”: RPMI medium supplemented with 10% sterile heat-inactivated FBS and 1% sterile antibiotic/antimycotic)+10% FBS, and the plates were allowed to incubate overnight at 37° C. On the day of the binding assay, antibodies at an initial concentration of 15 μg/ml were diluted at a 1:3 ratio in DELFIA® binding buffer (50 mM Tris, 150 mM NaCl, 0.1% azide, 2% horse serum) (Perkin-Elmer, Waltham, MA) to a total volume of 60 μL in a separate 96 well round bottom plate. PACAP38 was prepared for the binding assay by diluting it in DELFIA® binding buffer to a concentration of 200 nM, and then 60 μl of the diluted PACAP38 was added to each of the antibody-containing wells to form antibody: antigen complexes. Following addition of PACAP38, the antibody: antigen complexes were incubated at room temperature on a shaker for 1 hour. […]
DELFIA® Europium labeled anti-human IgG detection reagent (Cat #1244-330, Perkin-Elmer, Waltham, MA) was diluted to a concentration of 300 ng/ml in DELFIA® Binding Buffer. […] The plates were then read (TRF, excitation 330 nm, emission 620 nm) on a SPECTRAMAX® (Molecular Devices, Sunnyvale, CA) plate reader.

[11] = biological target: T3, PACAP38 (Pituitary Adenylate …); assay: SPR (ProteOn XPR36), antibody amine-coupled, peptide analyte, 1:1 Langmuir fit
Description: (§2) Binding affinities of monoclonal antibodies for human PACAP were estimated using SPR on the PROTEON™ XPR36 (Bio-Rad, Hercules, CA). Antibody was immobilized to the surface of general amine coupling (“GLC” or “GLM”) Chips (Bio-Rad, Hercules, CA). […] Antigen (ranging from 1.23 nM to 100 nM) was typically run sequentially with association times of 2-4 minutes and dissociation times of 3-120 minutes grouped with the PROTEON™ Manager Software (v3.1.0.6 (Bio-Rad, Hercules, CA)) and fitted using a 1:1 Langmuir binding model. Surfaces were regenerated between analyte queries using 0.85% Phosphoric Acid.

[12] = biological target: T1, PACAP27 (Pituitary Adenylate …); assay: as above
Description: as §2

[13] = biological target: T3, PACAP38 (Pituitary Adenylate …); assay: cell surface binding assay (DELFIA TRF): antibody pre-incubated with PACAP38, added to PAC1-R-expressing PC-12 cells, detected with Eu anti-human IgG; the antibody is held on the cells through cell-bound PACAP38

B1: Ab22 (antibody, human IgG1, kappa, N297A, V domains shown)
VH: QEQLVESGGGLVQPEGSLTLTCTASGFDFSSNAMCWVRQAPGKGLEWIGSIYNADGKNYYAIWAKGRFTISRTSSTTVTLQMTSLTAADTATYFCARDFDLWGQGTLVTVSS
VL: AAVLTQTPSPVSAAVGGTVTINCQSSQSVYDNDWLAWFQQKPGQPPKLLIYLTSTLASGVPSRFSGSGSGTQFTLTISGVQCDDAATYYCLGGYDEDGDTHVFGGGTEVVVKR
notes: Full-length anti-PACAP antibody; rabbit/human chimeric
[1]
  binding result: no binding
[2]
  binding result: no binding (tested: about 70 nM)

B2: Ab21.H2 (antibody, human IgG1, kappa, N297A)
heavy: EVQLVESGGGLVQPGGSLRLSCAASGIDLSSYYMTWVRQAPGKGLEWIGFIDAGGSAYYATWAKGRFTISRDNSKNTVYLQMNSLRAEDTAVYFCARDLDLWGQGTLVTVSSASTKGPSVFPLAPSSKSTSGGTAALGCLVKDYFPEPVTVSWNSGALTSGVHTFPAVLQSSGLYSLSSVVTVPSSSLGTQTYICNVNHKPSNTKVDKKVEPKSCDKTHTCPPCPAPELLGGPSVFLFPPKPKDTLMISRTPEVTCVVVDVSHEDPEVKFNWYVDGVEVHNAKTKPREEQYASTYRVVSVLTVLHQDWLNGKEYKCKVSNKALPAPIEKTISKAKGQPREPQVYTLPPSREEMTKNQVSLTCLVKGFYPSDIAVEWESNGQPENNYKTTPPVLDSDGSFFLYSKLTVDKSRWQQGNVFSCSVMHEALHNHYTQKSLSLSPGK
light: AVLTQSPSTLSASVGDRVTITCKSSESVYGDYLAWFQQKPGKAPKQLIYDASTLASGVPSRFSGSGSGTEFTLTISSLQPDDFATYYCAGGYVSAGVAFGGGTKVEIKRTVAAPSVFIFPPSDEQLKSGTASVVCLLNNFYPREAKVQWKVDNALQSGNSQESVTEQDSKDSTYSLSSTLTLSKADYEKHKVYACEVTHQGLSSPVTKSFNRGEC
notes: Full-length humanized variant of Ab21
[3]
  Inhibition of 0.1 nM PACAP38-induced PAC1-R mediated cAMP increase IC50 (pM): 28.5 pM
[4]
  Inhibition of 1 nM PACAP27-induced PAC1-R mediated cAMP increase IC50 (pM): 274 pM
[5]
  Inhibition of 5 nM PACAP38-induced human VPAC1-R mediated cAMP increase IC50 (pM): 2480 pM
[6]
  Inhibition of 1 nM PACAP38-induced human VPAC2-R mediated cAMP increase IC50 (pM): 1060 pM
[7]
  Kd: ≤ 0.0171 nM
  koff: ≤ 1e-05 s⁻¹
  kon: 586000 M⁻¹ s⁻¹
[8]
  Kd: ≤ 0.0233 nM
  koff: ≤ 1e-05 s⁻¹
  kon: 430000 M⁻¹ s⁻¹
[9]
  Kd: 225 nM
  koff: 0.011 s⁻¹
  kon: 48800 M⁻¹ s⁻¹
[10]
  EC50 (read off the curve): ~7 nM

B3: Ab1.H (antibody, V domains shown)
VH: EVQLVESGGGLVQPGGSLRLSCAASGFTVSSAVMNWVRQAPGKGLEWIGSIVASGTTYYASSANGRFTISRDNSKNTLYLQMNSLRAEDTAVYYCARGGGEFFIWGQGTLVTVSS
VL: DIQMTQSPSTLSASVGDRVTITCQSSESVYSNYLSWYQQKPGKAPKFLIYQASNLASGVPSRFSGSGSGTEFTLTISSLQPDDFATYYCAGGYSENIVGFGGGTKVEIKR
[11]
  Kd: 0.021 nM
  koff: 1e-05 s⁻¹
[12]
  Kd: 0.013 nM
  koff: 1e-05 s⁻¹
[13]
  EC50 (read off the curve): ~2 nM
